# Assays:
# Test in all cases: cell-based or functional assay
# [1] = biological target: 26 RSV/B isolates (F protein on virus)
# [2] = substrate: F protein of palivizumab-resistant clinical RSV isolate #20, on virus (RSV clinical isolate #20), P11209
# [3] = biological target: 42 RSV/A isolates (F protein on virus)
binder,measurement,setting,value
"AR201 (antibody, V domains shown) VH: LVQLRESGPGLVKPSQTLSLTCSVSGASINLYDYFWGWIRQAPGRGPEWIGYISGSTYYNPSLKRRATISVDTSKSQFFLELTSVTAADTAVYYCARDVGWGPQYYYGLDVWGQGTTVTVSS VL: DLVLTQSPGTLSLSPGERATLSCRASHSVQSTSLAWYQQKRGQAPRLLIYGGSSRVTGIPDRFSGSGSGTDFTLTISRLEPEDFAVYYCQQSDRSPPITFGQGTRLEMK","Log10 PFU/0.2 mL after 20 ug/ml antibody, plaque reduction assay on HEp-2 cells, mean (Log10 PFU/0.2 mL)",[1],-0.52
same,"Log10 PFU/0.2 mL after 20 ug/ml antibody, plaque reduction assay on HEp-2 cells, median (Log10 PFU/0.2 mL)",[1],-0.6
same,"IC50 of neutralisation, infectivity assay on Hep2 cells",[2],1710 nM
same,"Log10 PFU/0.2 mL after 20 ug/ml antibody, plaque reduction assay on HEp-2 cells, mean (Log10 PFU/0.2 mL)",[3],-0.42
same,"Log10 PFU/0.2 mL after 20 ug/ml antibody, plaque reduction assay on HEp-2 cells, median (Log10 PFU/0.2 mL)",[3],-0.6
